Patent US20150355184A1 (Merck Sharp & Dohme, published 2015)
Substitutions are numbered along the chain they refer to. Names and notes keep the numbering of the source.

B1: Monoclonal Antibody MEB037.20C3 (antibody, mouse IgG1, V domains shown)
VH: QVQVQQSGAELAEPGASVKMSCKASGYIFTSYWMHWLKQRPGQGLEWIGYINPSSDYNEYSEKFMDKATLTADKASTTAYMQLISLTSEDSAVYYCARSGWLVHGDYYFDYWGQGTTLTVSS
VL: DIVMSQSPSSLAVSAGEKVTMSCKSSQSLLNSRTRKNYLAWYQQKPGQSPKLLIYWASTRESGVPDRFTGSGSGTDFTLTISSVQAEDLAVYYCQQSYDVVTFGAGTKLELK
notes: Mouse IgG1 from hybridoma; also called antibody 20C3; antibody produced by hybridoma subclone MEB037.20C3.116
B2: Monoclonal Antibody MEB037.22C3 (antibody, V domains shown)
VH: QVHLQQSGAELAKPGASVKMSCKASGYTFTSYWIHWIKQRPGQGLEWIGYINPSSGYHEYNQKFIDKATLTADRSSSTAYMHLTSLTSEDSAVYYCARSGWLIHGDYYFDFWGQGTTLTVSS
VL: B1 VL with S22T, N31H, S32T, R33S, Q95K
modifications: N-terminal residue of the mature heavy chain is either glutamine or pyro-glutamate (pE)
notes: Mouse IgG1 from hybridoma (allotype S414R of a mouse IgG1); also called antibody 22C3; antibody produced by hybridoma subclone MEB037.22C3.138

Key:
[1] = biological target: T1, mouse PD-L1 (mouse, UniProt Q9EP73 19-238, limits assumed); assay: ELISA similar to the cell-based ELISA
T1 construct: Tested in 'a similar ELISA experiment'

[2] = biological target: T2, human PD-L1 expressed on cells (hPD-L1-CHOK1 / human PD-L1-CHO transfectants, LOX melanoma cells, human … (human, UniProt Q9NZQ7 19-290)); assay: flow cytometry on hPD-L1 positive LOX melanoma cells, 1 microgram/ml antibody, against isotype control mouse antibody
T2 construct: Cell surface PD-L1 on transfected CHO cells, on LOX melanoma cells or in FFPE tissue and cell pellets; also called human Programmed Death Ligand 1; mature PD-L1
Excerpt: Another experiment assessed the binding specificity of 20C3 and 22C3 for hPD-L1-expressing cells. HT144 cells which were known to be negative for expression of hPD-L1 by mRNA analysis (qPCR) and LOX melanoma cells known to express high levels of hPD-L1 mRNA (qPCR) were stained with 1 microgram/ml of purified mouse IgG from seven hybridomas generated in the experiments described in Example 1 above. An irrelevant isotype control mouse antibody was also used at the identical concentration. A fluorescent-labeled anti-mouse secondary antibody was used to detect the primary mouse antibodies. After staining and repeated washing, the cells were analyzed by flow cytometry, with median fluorescent intensities calculated for the population (>10,000 events collected).
20C3 and 22C3 as well as other hPD-L1 antibodies were employed as flow cytometric reagents to detect cell surface hPD-L1. The significant right shift of both the 20C3 and 22C3 histogram curves (FIG. 6A) as compared to the isotype control antibody curve reflects selective detection of hPD-L1 on the hPD-L1-positive LOX melanoma cell line.

T2 sequence (Q9NZQ7 19-290 limits assumed): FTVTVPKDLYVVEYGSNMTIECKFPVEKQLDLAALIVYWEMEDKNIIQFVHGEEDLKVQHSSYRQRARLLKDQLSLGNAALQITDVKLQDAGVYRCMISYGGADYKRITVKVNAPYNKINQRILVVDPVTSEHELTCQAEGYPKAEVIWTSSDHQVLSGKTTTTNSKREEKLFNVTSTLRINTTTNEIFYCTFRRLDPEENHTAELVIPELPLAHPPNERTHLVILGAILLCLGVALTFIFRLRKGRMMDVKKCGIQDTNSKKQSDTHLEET
T1 sequence (Q9EP73 19-238 limits assumed): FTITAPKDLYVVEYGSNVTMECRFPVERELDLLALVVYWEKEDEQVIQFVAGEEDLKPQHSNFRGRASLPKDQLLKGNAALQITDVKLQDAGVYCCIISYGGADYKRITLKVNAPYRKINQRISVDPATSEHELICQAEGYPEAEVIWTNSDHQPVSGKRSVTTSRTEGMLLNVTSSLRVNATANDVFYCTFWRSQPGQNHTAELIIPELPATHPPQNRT

Row | Binder | binding result [1] | fold increase in MFI compared to isotype [2] [fold]
1 | B1 | no binding | ≥ 10
2 | B2 | no binding | ≥ 10
